In paper PMC12371180, “Redox regulation of LSD1/CATALASE 2 phase separation condensates controls location and functions” (The New Phytologist, 2025) one finds catalase activity (change of 240 nm absorbance in 30 mM H2O2) of 10 μM CAT2 mixed with 10 μM LSD1 to form LSD1-CAT2 condensates, against CAT2 alone and Kd data, which are given here for two molecules.

For experiment [1], the target named is catalase 2 (CAT2), recombinant Arabidopsis thaliana, full-length (Arabidopsis thaliana) (UniProt P25819).
Experiment [2] deals with T1, PEX5-CAT2 complex (Atto-488-labelled CAT2 saturated with PEX5) (Arabidopsis thaliana, UniProt P25819 1-492; Q9FMA3 1-728, labelled with Atto-488 (protein to dye 1:1)).
T1 construct: catalase 2 (CAT2), Arabidopsis thaliana, full-length recombinant protein; as the chain of m2; PEX5, peroxisomal PTS1 import receptor, Arabidopsis thaliana, full-length recombinant protein; as the chain of m3
T1 sequence (looked up) 1: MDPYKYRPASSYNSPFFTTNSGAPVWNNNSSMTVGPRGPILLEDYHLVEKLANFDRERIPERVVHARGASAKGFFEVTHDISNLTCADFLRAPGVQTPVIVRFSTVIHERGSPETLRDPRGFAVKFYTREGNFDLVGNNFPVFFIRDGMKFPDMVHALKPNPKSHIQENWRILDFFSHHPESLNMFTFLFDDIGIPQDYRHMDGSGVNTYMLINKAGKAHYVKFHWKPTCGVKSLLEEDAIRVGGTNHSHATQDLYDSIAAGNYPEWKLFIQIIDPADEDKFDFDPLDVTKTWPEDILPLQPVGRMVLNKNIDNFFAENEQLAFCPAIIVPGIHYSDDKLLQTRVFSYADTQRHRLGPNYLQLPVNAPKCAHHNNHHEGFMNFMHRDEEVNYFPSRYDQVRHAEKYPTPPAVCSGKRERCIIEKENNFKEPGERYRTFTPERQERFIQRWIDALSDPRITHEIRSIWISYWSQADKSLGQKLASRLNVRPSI
T1 sequence (looked up) 2: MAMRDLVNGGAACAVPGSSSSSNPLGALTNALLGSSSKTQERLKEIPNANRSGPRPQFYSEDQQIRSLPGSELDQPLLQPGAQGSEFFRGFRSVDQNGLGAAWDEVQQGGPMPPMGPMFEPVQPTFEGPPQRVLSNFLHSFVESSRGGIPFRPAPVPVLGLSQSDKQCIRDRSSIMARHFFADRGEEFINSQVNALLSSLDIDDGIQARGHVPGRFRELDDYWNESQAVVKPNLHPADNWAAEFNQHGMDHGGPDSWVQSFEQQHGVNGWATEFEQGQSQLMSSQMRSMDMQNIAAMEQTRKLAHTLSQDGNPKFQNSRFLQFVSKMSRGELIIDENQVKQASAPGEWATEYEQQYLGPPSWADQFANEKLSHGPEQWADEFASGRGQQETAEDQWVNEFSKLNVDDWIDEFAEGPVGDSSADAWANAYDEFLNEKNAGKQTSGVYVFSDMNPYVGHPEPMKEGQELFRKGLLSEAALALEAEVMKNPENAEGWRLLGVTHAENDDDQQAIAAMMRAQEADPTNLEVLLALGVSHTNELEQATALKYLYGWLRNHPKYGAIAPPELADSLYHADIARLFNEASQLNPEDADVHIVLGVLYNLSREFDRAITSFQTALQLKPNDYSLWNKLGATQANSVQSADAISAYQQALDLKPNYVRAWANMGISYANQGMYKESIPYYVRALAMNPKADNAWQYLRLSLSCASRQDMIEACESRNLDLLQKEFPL
Kind of experiment: MST; Atto-488-labelled CAT2 saturated with PEX5 (10-fold above the affinity value) before titration of LSD1; 25°C, 20 mM HEPES pH 7.5, 20 mM NaCl, 0.05% Tween 20. The settings on record: both partners purified.

Experiment [3] addresses T2, peroxisome import receptor PEX5, recombinant Arabidopsis thaliana, full-length (Arabidopsis thaliana, UniProt Q9FMA3 1-728, unlabelled in MST; labelled with Atto-647 in the condensate imaging).
T2 construct: PEX5, peroxisomal PTS1 import receptor, Arabidopsis thaliana, full-length recombinant protein; cloning not described; The cloning of the PEX5 construct is not described in the methods
T2 sequence (looked up): T1 sequence (looked up) 2
Put plainly: MST; 100 nM Atto-488-labelled CAT2, unlabelled partner serially diluted; 25°C, 20 mM HEPES pH 7.5, 20 mM NaCl, 0.05% Tween 20; Monolith NT.115. The settings on record: both partners purified.

B1: LESION SIMULATING DISEASE1 (LSD1), recombinant Arabidopsis thaliana, full-length (natural protein, UniProt P94077-2 1-184, looked up)
chain: MQDQLVCHGCRNLLMYPRGASNVRCALCNTINMVPPPPPPHDMAHIICGGCRTMLMYTRGASSVRCSCCQTTNLVPAHSNQVAHAPSSQVAQINCGHCRTTLMYPYGASSVKCAVCQFVTNVNMSNGRVPLPTNRPNGTACPPSTSTSTPPSQTQTVVVENPMSVDESGKLVSNVVVGVTTDKK
modifications: unlabelled when titrated in MST; labelled with Atto-550 in the condensate imaging
notes: LSD1 (LESION SIMULATING DISEASE1), Arabidopsis thaliana, full-length, cloned into pET28b with NdeI and NotI; pET28b with NdeI cloning would usually add an N-terminal His tag (surmise; source: dialysed)
The Kd is the equilibrium constant for the complex coming apart. B1: the catalase activity (change of 240 nm absorbance in 30 mM H2O2) of 10 μM CAT2 mixed with 10 μM LSD1 to form LSD1-CAT2 condensates, against CAT2 alone in experiment [1] worked out at 2.5 fold. For the same molecule, the affinity in experiment [2], expressed as Kd, was 136 ± 39.8 nM.

B2: catalase 2 (CAT2), recombinant Arabidopsis thaliana, full-length (enzyme, UniProt P25819 1-492, looked up)
chain: T1 sequence (looked up) 1
modifications: labelled with Atto-488 (protein to dye 1:1) in MST and in the condensate imaging
notes: catalase 2 (CAT2), Arabidopsis thaliana, full-length recombinant protein; cloned into pET28b with NdeI and XhoI; pET28b with NdeI cloning would usually add an N-terminal His tag (surmise)
Regarding B2, the equilibrium dissociation constant (Kd) in experiment [3] was 2350 ± 279 nM.
